Reference: publication PMC4367193 (Biochemistry, 2009)

Legend:
Aβ42WT [1] = biological target: T1, Aβ42WT (Homo sapiens, UniProt P05067); assay type: biochemical; settings: 37°C
Aβ42WT [2] = biological target: T1, Aβ42WT; assay: Circular dichroism spectroscopy, Aβ42WT β-sheet formation; assay type: biochemical
Aβ40DI [3] = assay: Surface plasmon resonance, binding to Aβ40DI; settings: ECP negative control; SPR
MBP/Aβ42WT interaction = assay: Competitive co-immunoprecipitation, binding of Aβ42WT to MBP; design: species or system human; settings: data not shown
Aβ40WT = assay: Surface plasmon resonance, binding to Aβ40WT; settings: ECP negative control; SPR
Aβ42WT [4] = biological target: T1, Aβ42WT; assay: Surface plasmon resonance, binding to immobilised Aβ42WT
Aβ [5] = assay type: binding, human; settings: soluble cortical homogenate, polyclonal anti-MBP IgG, Fig. 1D
Aβ [6] = assay type: binding, 5xFAD mouse; settings: soluble cortical homogenate, polyclonal anti-MBP IgG, Fig. 1D
Aβ40DI [7] = settings: previous study; ref [25] Hoos et al. 2007; cited from earlier work
Aβ42WT [8] = biological target: T1, Aβ42WT; assay: Attenuated total reflection infrared spectroscopy, Aβ42WT β-sheet formation; assay type: biochemical; settings: Aβ42 50 μM in PBS, MBP 6.25 μM, 37°C, 24 h; second-derivative ATR-IR
Aβ42WT [9] = biological target: T1, Aβ42WT; assay: Thioflavin T fluorescence assay, Aβ42WT fibril formation; assay type: biochemical; settings: Aβ42 12.5 μM, MBP 1.56 μM, 37°C, 150 mM NaCl; triplicate

T1 sequence (P05067 672-713 limits assumed): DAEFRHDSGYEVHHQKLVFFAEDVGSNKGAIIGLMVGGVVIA

For “Aβ42WT: wild-type Aβ42 peptide, synthesized by solid-phase Fmoc chemistry”, the “Length of oligomeric structures” value (Aβ42WT [1]; Aβ42WT alone, 6 h) was “up to 40 nm”, the “Average height of fibrillar structures” value (Aβ42WT [1]; Aβ42WT alone, 24 h) was “over 4 nm” and the “Time at which β-sheet formation begins to plateau (CD, 215 nm)” value (Aβ42WT [2]; Aβ42WT alone 50 μM, 37°C, 11 mM NaCl, results section) was 24 h.

B1: ECP: Eosinophil cationic protein, very similar charge and molecular mass compared to MBP, negative control (protein, UniProt P12724 28-160, looked up)
Eosinophil cationic protein: RPPQFTRAQWFAIQHISLNPPRCTIAMRAINNYRWRCKNQNTFLRTTFANVVNVCGNQSIRCPHNRTLNNCHRSRFRVPLLHCDLINPGAQNISNCTYADRPGRRFYVVACDNRDPRDSPRYPVVPVHLDTTI
For B1, the “Binding affinity (KD) for Aβ40DI, ECP” value (Aβ40DI [3]) was “not detected”, the “Competition of ECP with MBP for binding to Aβ42” value (MBP/Aβ42WT interaction) was “did not compete for MBP binding to Aβ42” and the “Binding affinity (KD) for Aβ40WT, ECP” value (Aβ40WT) was “not detected”. For the same molecule, the “Detectable binding to Aβ42WT ligand surface” value (Aβ42WT [4]; concentrations up to 32-fold greater than MBP, SPR) was “No binding could be detected”.

B2: MBP: Purified human MBP (purchased from Chemicon International) (protein, UniProt P02686 1-304, looked up)
Myelin basic protein: MGNHAGKRELNAEKASTNSETNRGESEKKRNLGELSRTTSEDNEVFGEADANQNNGTSSQDTAVTDSKRTADPKNAWQDAHPADPGSRPHLIRLFSRDAPGREDNTFKDRPSESDELQTIQEDSAATSESLDVMASQKRPSQRHGSKYLATASTMDHARHGFLPRHRDTGILDSIGRFFGGDRGAPKRGSGKDSHHPARTAHYGSLPQKSHGRTQDENPVVHFFKNIVTPRTPPPSQGKGRGLSLSRFSWGAEGQRPGFGYGGRASDYKSAHKGFKGVDAQGTLSKIFKLGGRDSRSGSPMARR
In the case of B2, the “Oligomeric structures at 6 h in the presence of MBP” value (Aβ42WT [1]; 6 h, AFM and TEM) is reported as “marked reduction”, the “Fibrils at 24 h in the presence of MBP” value (Aβ42WT [1]; 24 h, TEM) is reported as “noticeably absent” and the “Interaction of MBP with Aβ in human AD brain homogenate” value (Aβ [5]) is reported as “MBP can interact with Aβ peptides”. The “Absolute CD ellipticity at 215 nm with MBP” value (Aβ42WT [2]; MBP alone and Aβ42WT (50 μM) with MBP (6.25 μM), 37°C, 0-36 h) was “remained low and decreased somewhat over the course of incubation”, the “Conformation of MBP alone by CD” value (Aβ42WT [2]; MBP alone, throughout the time-course, data not shown) was “characteristic random-coil conformation” and the “Interaction of MBP with Aβ in 5xFAD mouse brain homogenate” value (Aβ [6]) was “MBP can interact with Aβ peptides”. For the same molecule, the “Inhibition of fibrillar assembly of Aβ40DI” value (Aβ40DI [7]) was “effectively inhibits the fibrillar assembly of Aβ40DI”, the “β-turn peaks at 1681 and 1675 cm^−1 on addition of MBP” value (Aβ42WT [8]) was “remained unchanged even with the addition of MBP” and the “Thioflavin-T fluorescence in samples containing Aβ42WT and MBP” value (Aβ42WT [9]) was “lack of thioflavin-T fluorescence”. The “KD with Aβ42WT compared with Aβ40DI” value (Aβ42WT [4]; calculated KD between MBP and Aβ42WT versus affinity between MBP and Aβ40DI (ref [25])) was “comparable to the affinity between MBP and Aβ40DI” and the “KD with Aβ42WT compared with Aβ40WT” value (Aβ42WT [4]; calculated KD between MBP and Aβ42WT versus that between MBP and Aβ40WT (ref [25])) was “stronger than that between MBP and Aβ40WT”.
